From paper PMC5847621 (2018)

Biological target: T1, VSV Gth, soluble form of the ectodomain of VSV glycoprotein G (residues 1-422) (Vesicular stomatitis virus (Mudd-Summer …, UniProt P0C2X0 17-438))
T1 chain: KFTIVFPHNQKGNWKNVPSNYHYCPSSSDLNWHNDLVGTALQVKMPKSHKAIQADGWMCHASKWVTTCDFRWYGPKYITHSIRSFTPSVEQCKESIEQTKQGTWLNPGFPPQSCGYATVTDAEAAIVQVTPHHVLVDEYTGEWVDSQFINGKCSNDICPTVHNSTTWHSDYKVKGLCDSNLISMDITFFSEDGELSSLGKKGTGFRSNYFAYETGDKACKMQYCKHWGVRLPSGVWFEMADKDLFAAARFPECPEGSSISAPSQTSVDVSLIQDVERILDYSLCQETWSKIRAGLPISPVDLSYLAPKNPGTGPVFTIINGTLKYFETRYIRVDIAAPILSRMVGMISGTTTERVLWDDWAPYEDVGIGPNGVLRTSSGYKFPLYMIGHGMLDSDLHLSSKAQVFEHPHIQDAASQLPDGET
Assay: ITC

B1: LDL-R CR3 domain, isolated (GST cleaved off) (domain or fragment)
chain: not shown
Kd: 3.75 µM
